Experimental data published in the Human Domainome abundance scans (Beltran et al. 2025).
± gives the uncertainty stated by the source.

B1: Cytoplasmic polyadenylation element-binding protein 2, residues 513 to 575; numbered along this chain, Q7Z5Q1 (parent)
chain: KRVEVKPYVLDDQMCDECQGARCGGKFAPFFCANVTCLQYYCEFCWANIHSRAGREFHKPLVK

Variants of: B1
Experiment: abundance fitness (aPCA) (normalised: wild type 0, dead -1); higher = more abundant; growth selection in yeast, the domain comes from the species named
Settings: Homo sapiens

Variant | abundance fitness
Q19G | -0.036 ± 0.049
Q19T | -0.056 ± 0.048
Q19F | -0.151 ± 0.069
Q19M | -0.091 ± 0.055
Q19A | -0.008 ± 0.045
Q19E | 0.006 ± 0.046
Q19D | -0.056 ± 0.076
Q19S | -0.071 ± 0.029
Q19I | -0.503 ± 0.13
F44W | -0.067 ± 0.043
F44K | -0.046 ± 0.058
F44Y | 0.059 ± 0.096
F44M | -0.145 ± 0.057
F44N | -0.056 ± 0.055
F44P | 0.082 ± 0.048
P29V | -0.199 ± 0.064
P29Q | 0.074 ± 0.11
P29K | -0.065 ± 0.047
G24K | -0.068 ± 0.049
G24N | 0.172 ± 0.094
G24S | -0.046 ± 0.044
G24W | -0.278 ± 0.034
F27K | 0.084 ± 0.059
F27E | -0.09 ± 0.051

Variant | abundance fitness
F27A | 0.068 ± 0.042
F27I | -0.218 ± 0.1
F27G | -0.061 ± 0.042
F27C | 0.054 ± 0.057
F27Q | -0.045 ± 0.05
D11Q | -0.037 ± 0.069
D11W | -0.238 ± 0.055
D11F | -0.149 ± 0.085
D11Y | -0.112 ± 0.096
D11R | -0.068 ± 0.05
D11A | -0.122 ± 0.045
Q39L | -0.175 ± 0.047
Q39I | -0.573 ± 0.1
Q39K | 0.201 ± 0.061
Q39S | 0.016 ± 0.045
Q39G | 0.024 ± 0.051
A28T | -0.364 ± 0.061
A28N | -0.459 ± 0.13
A28H | -0.495 ± 0.097
A28L | -0.497 ± 0.058
A28C | -0.674 ± 0.15
A28D | -0.484 ± 0.077
E43A | -0.3 ± 0.067
E43M | -0.309 ± 0.05

Variant | abundance fitness
E43F | -0.298 ± 0.052
E43Q | -0.11 ± 0.057
E43Y | -0.146 ± 0.058
R22E | -0.222 ± 0.061
R22S | -0.04 ± 0.04
R22Q | 0.1 ± 0.073
R22W | -0.332 ± 0.078
R22D | -0.289 ± 0.075
R22V | -0.343 ± 0.05
R22K | 0.006 ± 0.06
H58W | -1.01 ± 0.08
H58F | -0.934 ± 0.11
H58R | -0.763 ± 0.049
H58L | -0.707 ± 0.061
H58P | -0.51 ± 0.1
F57M | 0.144 ± 0.066
F57G | 0.166 ± 0.035
F57N | 0.134 ± 0.076
F57H | 0.027 ± 0.044
F57D | 0.054 ± 0.073
F57P | -0.029 ± 0.052
F57Y | -0.032 ± 0.077
N48M | 0.068 ± 0.071
N48I | -0.02 ± 0.047

Variant | abundance fitness
N48H | 0.049 ± 0.047
N48V | -0.003 ± 0.061
N48E | 0.104 ± 0.088
V62S | -0.081 ± 0.34
M14T | 0.069 ± 0.045
M14R | -0.154 ± 0.059
M14L | -0.167 ± 0.042
M14E | -0.073 ± 0.07
M14Y | 0.082 ± 0.077
M14G | -0.187 ± 0.054
M14A | -0.098 ± 0.057
V3A | 0.059 ± 0.055
V3Y | -0.37 ± 0.12
V3G | -0.1 ± 0.033
V3C | -0.945 ± 0.13
V3T | 0.167 ± 0.063
V3E | 0.084 ± 0.043
V3H | -0.039 ± 0.079
C37P | -0.496 ± 0.064
C37G | -0.633 ± 0.056
C37Y | -0.806 ± 0.12
E56C | -0.195 ± 0.056
E56P | -0.31 ± 0.054
E56W | -0.573 ± 0.057

Variant | abundance fitness
E56N | -0.111 ± 0.088
G54K | -0.195 ± 0.1
K26T | -0.073 ± 0.059
D16M | -0.089 ± 0.059
D16G | 0.137 ± 0.049
D16K | 0.056 ± 0.068
D16L | -0.271 ± 0.038
D16F | 0.145 ± 0.055
D16A | 0.098 ± 0.056
D16S | 0.193 ± 0.036
D16W | -0.013 ± 0.047
K63Y | -0.408 ± 0.14
K63H | -0.014 ± 0.11
K63V | -0.112 ± 0.062
G25F | -0.118 ± 0.059
G25A | -0.147 ± 0.049
G25L | -0.207 ± 0.039
G25I | -0.538 ± 0.087
G25D | -0.082 ± 0.059
G25T | -0.088 ± 0.045
G25P | -0.321 ± 0.06
P7Q | -0.098 ± 0.062
P7D | 0.132 ± 0.097
P7N | 0.01 ± 0.086

Variant | abundance fitness
P7F | -0.413 ± 0.18
C23D | 0.028 ± 0.074
C23G | -0.056 ± 0.042
C23Q | -0.24 ± 0.075
C23Y | -0.38 ± 0.068
C23N | -0.121 ± 0.075
C23E | -0.153 ± 0.068
C23V | -0.328 ± 0.06
C23S | -0.074 ± 0.035
A21D | -0.159 ± 0.068
A21T | -0.117 ± 0.053
A21Q | -0.141 ± 0.073
A21S | -0.018 ± 0.04
A53V | -0.006 ± 0.038
A53P | 0.157 ± 0.046
A53C | -0.091 ± 0.068
A53M | -0.045 ± 0.057
A53Q | 0.106 ± 0.058
A53R | 0.055 ± 0.03
V5E | 0.144 ± 0.064
V5Y | -0.141 ± 0.055
V5F | -0.098 ± 0.081
V5N | 0.048 ± 0.086
A33L | -0.311 ± 0.042

Variant | abundance fitness
C18I | -1.05 ± 0.23
C18F | -0.954 ± 0.15
C18T | -0.643 ± 0.093
P60H | -0.226 ± 0.13
P60W | -0.817 ± 0.069
P60A | -0.051 ± 0.046
P60M | -0.157 ± 0.064
P60G | -0.341 ± 0.049
P60E | -0.412 ± 0.072
E17F | -0.458 ± 0.085
E17G | -0.081 ± 0.042
E17D | -0.136 ± 0.06
E17P | -0.366 ± 0.054
F30V | -0.219 ± 0.049
G20C | -0.503 ± 0.07
G20F | -0.987 ± 0.12
G20T | -0.571 ± 0.072
G20A | -0.501 ± 0.073
G20E | -0.462 ± 0.074
Y8Q | 0.012 ± 0.06
Y8C | -0.115 ± 0.08
Y8R | 0.064 ± 0.039
Y8G | 0.154 ± 0.042
